Publication PMC4428900
Read-outs that look alike come from different tables or passages of the source.

Assays:
[1] = biological target: NS4B (genotype 1b) fused to mCherry (Hepatitis C virus genotype 1b) (UniProt Q9WMX2); assay: FRET or BRET
[2] = biological target: NS4B (genotype 1b) fused to GFP (Hepatitis C virus genotype 1b) (UniProt Q9WMX2); assay: FRET or BRET
[3] = biological target: NS4B (genotype 2a) fused to mCherry (Hepatitis C virus genotype 2a) (UniProt Q99IB8); assay: FRET or BRET
[4] = biological target: NS4B (genotype 2a) W204A fused to mCherry (Hepatitis C virus genotype 2a); assay: FRET or BRET
[5] = biological target: NS4B (genotype 2a) fused to mCherry (Hepatitis C virus genotype 2a) (UniProt Q99IB8); assay: FRET or BRET; remark: listed apart in the source
[6] = biological target: pBIND-NS4B C-terminal domain W204A (Hepatitis C virus genotype 2a); assay: two-hybrid

NS4B (genotype 1b) fused to GFP (from UniProt Q9WMX2 1712-1972) (natural protein)
mean FRET efficiency (EF) [1]: 6.6

NS5A (genotype 1b) fused to mCherry (from UniProt Q9WMX2 1973-2419) (natural protein)
mean FRET efficiency (EF) [2]: 6

NS5A (genotype 2a) a.a. 1–352 fused to GFP (domain or fragment)
mean FRET efficiency (Ef) [3]: 9.3

NS5A (genotype 2a) fused to GFP (from UniProt Q99IB8 1977-2442) (natural protein)
mean FRET efficiency (Ef) [4]: 1.3
mean FRET efficiency (Ef) [5]: 6.5
mean FRET efficiency (EF) [1]: 6.5
mean FRET efficiency (EF) [3]: 5.5
mean FRET efficiency (Ef) [3]: 9.6

pACT-NS5A (full length NS5A of genotype 2a fused to VP16) (from UniProt Q99IB8 1977-2442) (natural protein)
reduction in luciferase activity compared to the wild type [6]: 30%
